Reference: patent publication US8257758B2, “Process for the extraction, purification and enzymatic modification of soy 7S globulin alpha' subunit for use as hypocholesterolemizing agent” (Indena S.p.A., priority 2002, dated 2012)

B1: α' subunit: soy β-conglycinin α′ subunit purified by Metal Affinity Chromatography under denaturant conditions (protein, UniProt P11827 63-621, looked up)
Beta-conglycinin alpha' …: VEEEEECEEGQIPRPRPQHPERERQQHGEKEEDEGEQPRPFPFPRPRQPHQEEEHEQKEEHEWHRKEEKHGGKGSEEEQDEREHPRPHQPHQKEEEKHEWQHKQEKHQGKESEEEEEDQDEDEEQDKESQESEGSESQREPRRHKNKNPFHFNSKRFQTLFKNQYGHVRVLQRFNKRSQQLQNLRDYRILEFNSKPNTLLLPHHADADYLIVILNGTAILTLVNNDDRDSYNLQSGDALRVPAGTTYYVVNPDNDENLRMITLAIPVNKPGRFESFFLSSTQAQQSYLQGFSKNILEASYDTKFEEINKVLFGREEGQQQGEERLQESVIVEISKKQIRELSKHAKSSSRKTISSEDKPFNLRSRDPIYSNKLGKLFEITPEKNPQLRDLDVFLSVVDMNEGALFLPHFNSKAIVVLVINEGEANIELVGIKEQQQRQQQEEQPLEVRKYRAELSEQDIFVIPAGYPVVVNATSDLNFFAFGINAENNQRNFLAGSKDNVISQIPSQVQELAFPGSAKDIENLIKSQSESYFVDAQPQQKEEGNKGRKGPLSSILRAFY

Assays:
[1] = tested on: rats fed with hypercholesterolemic diet; assay: Total cholesterol and triglycerids plasma levels in rats fed with hypercholesterolemic diet, 28 day oral treatment; format: in vivo, rat; conditions: for Total cholesterol / Total triglycerids: plasma, male CD rats, hypercholesterolemic diet, oral 28 days, after 16 hour fasting
Procedure: Male rats CD SPF/VAF, weighing 75-100 g, were used. The animals were housed in makrolon cages (4-5 animals per cage) in environment with automatic control of light (12 hour light/12 hour darkness cycles), temperature (21±1° C.) and humidity (60±5%).
After 7 day housing, the animals were randomly divided into seven groups of 20 rats each (Table 2). During 28 days, one group was fed with normal diet (cod. 014RF25C; Mucedola S.r.l., Settimo Milanese, MI, Italy), whereas the others were fed with hypercholesterolemic diet consisting of 1% cholesterol, 0.5% cholic acid and 25% hydrogenated coconut oil (batch 332000, preparation Jan. 9, 2000; Laboratorio Dottori Piccioni, Gessate, MI, Italy), with access to water ad libitum. The diet was given daily (40 g, 09.00 a.m.) and the unconsumed amount was weighed. Treatment was carried out as follows.
Total cholesterol and triglycerids plasma levels were measured at the end of the 28 day treatment and after 16 hour fasting. […] After centrifugation for 15 min at 4° C. at 3000 rpm, plasma was recovered, frozen and stored at −20° C. until measurements.
Total cholesterol and triglycerids plasma concentrations (reported in Table 2) were determined according to conventional enzymatic assays.

[2] = tested on: LDL receptor; conditions: hepatic cell line; Lovati et al. 1992, 1996; Manzoni et al. 1998; cited from earlier work

Row | Molecule | Total cholesterol ([1]; dose 200 mg/kg) [mg/dL] | Total triglycerids ([1]; dose 200 mg/kg) [mg/dL] | effect on cholesterol and total triglycerids plasma levels (in words) ([1]; administration to rats, table 2) | Total cholesterol ([1]; dose 10 mg/kg) [mg/dL] | Total triglycerids ([1]; dose 10 mg/kg) [mg/dL] | LDL receptor activity (in words) [2]
1 | CCOC(=O)C(C)(C)Oc1ccc(Cl)cc1 [clofibrate, reference compound] | 191.2 ± 8.0 | 139.1 ± 5.8 | – | – | – | –
2 | B1 | – | – | remarkably decreasing | 182.2 ± 12.1 | 150.1 ± 9.8 | capable of activating LDL receptor
